{
  "source": "patent US20220313738A1",
  "about": "(NANJING LEGEND BIOTECH, published 2022)",
  "binders": {"B1": {"name": "wildtype SIV Nef (other)", "chain": "MGSSNSKRQQQGLLKLWRGLRGKPGADWVLLSDPLIGQSSTVQEECGKALKKSWGKGKMTPDGRRLQEGDTFDEWDDDEEEVGFPVQPRVPLRQMTYKLAVDFSHFLKSKGGLDGIYYSERREKILNLYALNEWGIIDDWQAYSPGPGIRYPRVFGFCFKLVPVDLHEEARNCERHCLMHPAQMGEDPDGIDHGEVLVWKFDPKLAVEYRPDMFKDMHEHAKR"}, "B2": {"name": "SIV Nef M116 (other)", "chain": "B1 chain with L178A, M179A"}},
  "test_in_all_cases": "cell-based or functional assay",
  "key": {"[1]": {"target": "M665 (CD8α SP-BCMA scFv-CD8α hinge-CD8α TM-ISD)"}, "[2]": {"target": "M666 (CD8α SP-BCMA scFv-CD8α hinge-CD8α TM-ISD)"}, "[3]": {"target": "M663 (CD8α SP-BCMA scFv-CD8α hinge-CD8α TM-ISD)"}},
  "note": "Changes are numbered by the printed parent chain.",
  "data": [
    {"binder": "B1", "values": [
      {"measurement": "relative ISD-modified CAR positive rate (FACS), day 3, against empty vector control", "setting": "[1]", "value": 82.3, "unit": "%"},
      {"measurement": "relative ISD-modified CAR positive rate (FACS), day 3, against empty vector control", "setting": "[2]", "value": 57, "unit": "%"},
      {"measurement": "relative ISD-modified CAR positive rate (FACS), day 3, against empty vector control", "setting": "[3]", "value": 46.7, "unit": "%"}
    ]},
    {"binder": "B2", "values": [
      {"measurement": "relative ISD-modified CAR positive rate (FACS), day 3, against empty vector control", "setting": "[1]", "value": 70.3, "unit": "%"},
      {"measurement": "relative ISD-modified CAR positive rate (FACS), day 3, against empty vector control", "setting": "[2]", "value": 56.2, "unit": "%"},
      {"measurement": "relative ISD-modified CAR positive rate (FACS), day 3, against empty vector control", "setting": "[3]", "value": 50.9, "unit": "%"}
    ]}
  ]
}
